# Assay results taken from patent publication US20240209100A1 (DIAGONAL THERAPEUTICS, published 2024).
# T1: IL-18 receptor (IL-18Rα/IL-18Rβ) overexpressed on HEK-Blue IL-18 cells (Homo sapiens (Human), UniProt Q13478 19-541; O95256 20-599)
# T1 sequence 1: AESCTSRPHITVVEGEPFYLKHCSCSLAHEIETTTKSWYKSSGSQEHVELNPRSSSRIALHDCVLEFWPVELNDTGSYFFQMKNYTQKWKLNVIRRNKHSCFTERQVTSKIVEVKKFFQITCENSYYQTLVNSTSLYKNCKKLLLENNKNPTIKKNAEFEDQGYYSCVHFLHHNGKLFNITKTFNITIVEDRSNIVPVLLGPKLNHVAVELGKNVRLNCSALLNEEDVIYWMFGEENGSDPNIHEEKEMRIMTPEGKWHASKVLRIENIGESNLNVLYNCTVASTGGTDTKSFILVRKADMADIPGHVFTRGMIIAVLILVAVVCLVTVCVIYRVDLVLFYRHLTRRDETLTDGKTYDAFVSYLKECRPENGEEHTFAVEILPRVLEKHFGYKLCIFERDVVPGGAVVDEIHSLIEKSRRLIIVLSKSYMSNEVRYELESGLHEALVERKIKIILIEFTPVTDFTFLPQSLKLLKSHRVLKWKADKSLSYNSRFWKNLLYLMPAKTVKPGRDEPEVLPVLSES
# T1 sequence 2: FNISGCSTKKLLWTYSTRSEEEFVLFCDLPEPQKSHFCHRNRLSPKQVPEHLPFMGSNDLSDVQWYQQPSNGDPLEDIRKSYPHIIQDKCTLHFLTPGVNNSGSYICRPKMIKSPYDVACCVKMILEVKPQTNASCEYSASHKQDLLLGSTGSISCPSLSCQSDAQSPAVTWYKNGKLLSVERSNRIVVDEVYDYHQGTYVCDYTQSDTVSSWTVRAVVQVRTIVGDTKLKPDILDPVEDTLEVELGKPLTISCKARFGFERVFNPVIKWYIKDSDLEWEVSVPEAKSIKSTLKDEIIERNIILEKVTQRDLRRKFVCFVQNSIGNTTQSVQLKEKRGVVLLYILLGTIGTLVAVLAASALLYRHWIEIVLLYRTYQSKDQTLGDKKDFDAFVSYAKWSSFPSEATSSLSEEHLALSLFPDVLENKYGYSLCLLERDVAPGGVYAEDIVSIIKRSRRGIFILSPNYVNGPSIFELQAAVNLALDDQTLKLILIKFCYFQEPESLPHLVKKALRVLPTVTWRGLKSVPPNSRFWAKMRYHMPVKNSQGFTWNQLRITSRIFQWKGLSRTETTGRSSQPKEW
# Biological target: T1, IL-18 receptor (IL-18Rα/IL-18Rβ) …
# Test: cell-based or functional assay
Binder,HEK-Blue IL-18: Abs 405 [Abs],HEK-Blue IL-18: Fold over Background [fold]
"DGL304 (bispecific antibody, V domains shown) V domain 1: QVQLVESGGGLVQAGGSLRLSCAASGRTFSSYDMGWFRQAPGKEREFVAALRWSGGSTSYADSVKGRFTISRDNAKNTVYLHMNSLKPEDTAVYYCAATLETDSGTYWADYWGQGTQVTVSS V domain 2: QVQLQESGGGLVQPGGSLGLSCAASGIKISVNSMAWYRQAPGERREMVAVISSGGSAVYADSVKGRFTISRDNAKNMVYLQMNSLKPEDTAVYYCHPGSAAYRDYWGQGTQVTVSS",1.32,5.7
"DGL307 (bispecific antibody, V domains shown) V domain 1: QVQLVESGGGLVQAGGSLRLSCAASGRTFSSYTMGWFRQAPGKEREFVAAISWSAGRTYYADSVKGRFTISRDNAKNTVYLQMNSLKPEDTAVYFCAAEEAPDWAPIDCSGYGCLSLYDYWGQGTQVTVSS V domain 2: QVQLQESGGGLVQPGGSLGLSCAASGIKISVNSMAWYRQAPGERREMVAVISSGGSAVYADSVKGRFTISRDNAKNMVYLQMNSLKPEDTAVYYCHPGSAAYRDYWGQGTQVTVSS",0.35,1.5
"DGL305 (bispecific antibody, V domains shown) V domain 1: EVQLVESGGGLVQPGGSLRLSCAASGSIFSINAMGWYRQAPGKQREVVATSTGGGMTNYADSVKGRFTISRDNAKNTVYLQMNSLKPEDTAVYYCNADKDPFFPGDYWGQGTQVTVSS V domain 2: QVQLQESGGGLVQPGGSLGLSCAASGIKISVNSMAWYRQAPGERREMVAVISSGGSAVYADSVKGRFTISRDNAKNMVYLQMNSLKPEDTAVYYCHPGSAAYRDYWGQGTQVTVSS",0.25,1.1
"DGL308 (bispecific antibody, V domains shown) V domain 1: QVQLVESGGGLVQAGGSLRLSCAASGRTFSSYDMGWFRQAPGKEREFVAALRWSGGSTSYADSVKGRFTISRDNAKNTVYLHMNSLKPEDTAVYYCAATLETDSGTYWADYWGQGTQVTVSS V domain 2: EVQLVESGGGVAQAGGSLRLSCAASITSFSLNTMGYYRQLPGKQRELVAVESSSGITNYADSVKGRFTISRDGAKNTVFLQMNSLTPEDTAVYYCGGKLFGRDFWGQGTQVTVSS",1.48,6.4
"DGL302 (bispecific antibody, V domains shown) V domain 1: QVQLVESGGGLVQAGGSLRLSCAASGRTFSKHAMGWFRQAPGKEREFVAAIDWSGGSTYYADSVKGRFTISRDNAKNTVYLQMDSLKPEDTAVYYCAADSYTDYAQLWLPELESEYDYWGQGTQVTVSS V domain 2: QVQLVESGGGLVLPGESLRLSCVVSGTIDNINSMGWYRQAPGKQRELVAYITKLGSANYADSVEGRFTISRDNAKKTVHLQMNSLKPEDTAVYYCHANERGRITWAQGTQVTVSS",1.18,5.2
"DGL303 (bispecific antibody, V domains shown) V domain 1: QVQLQESGGGLVQPGGSLRLSCAASGFIFSNWYMRWVRQAPGEGLEWVSSINSGGDDTDYADSVKGRFTISRDNAKGTLYLQMHSLKPEDTALYYCERGADRVRGQGTQVTVSS V domain 2: QVQLVESGGGLVLPGESLRLSCVVSGTIDNINSMGWYRQAPGKQRELVAYITKLGSANYADSVEGRFTISRDNAKKTVHLQMNSLKPEDTAVYYCHANERGRITWAQGTQVTVSS",1.02,4.4
"DGL306 (bispecific antibody, V domains shown) V domain 1: QVQLVESGGGLVQAGGSLRLSCAASGRTFSKHAMGWFRQAPGKEREFVAAIDWSGGSTYYADSVKGRFTISRDNAKNTVYLQMDSLKPEDTAVYYCAADSYTDYAQLWLPELESEYDYWGQGTQVTVSS V domain 2: QVQLQESGGGLVQPGGSLGLSCAASGIKISVNSMAWYRQAPGERREMVAVISSGGSAVYADSVKGRFTISRDNAKNMVYLQMNSLKPEDTAVYYCHPGSAAYRDYWGQGTQVTVSS",1.41,6.2
"DGL310 (bispecific antibody, V domains shown) V domain 1: QVQLVESGGGLVQAGGSLRLSCAASGRTFSKHAMGWFRQAPGKEREFVAAIDWSGGSTYYADSVKGRFTISRDNAKNTVYLQMDSLKPEDTAVYYCAADSYTDYAQLWLPELESEYDYWGQGTQVTVSS V domain 2: EVQLVESGGGVAQAGGSLRLSCAASITSFSLNTMGYYRQLPGKQRELVAVESSSGITNYADSVKGRFTISRDGAKNTVFLQMNSLTPEDTAVYYCGGKLFGRDFWGQGTQVTVSS",2.7,11.8
"DGL309 (bispecific antibody, V domains shown) V domain 1: QVQLQESGGGLVQPGGSARLSCVASGIIFNDYHMGWYRQAPGKQRDLVAGITAGGSTTYADSVKGRFTISRDNAKHTVYLQMNNLSPEDTAVYYCNTFYNAILDWGKGTLVTVSS V domain 2: EVQLVESGGGVAQAGGSLRLSCAASITSFSLNTMGYYRQLPGKQRELVAVESSSGITNYADSVKGRFTISRDGAKNTVFLQMNSLTPEDTAVYYCGGKLFGRDFWGQGTQVTVSS",0.23,1
"DGL311 (bispecific antibody, V domains shown) V domain 1: QVQLVESGGGLVQAGGSLRLSCAASGRTFSSYTMGWFRQAPGKEREFVAAISWSAGRTYYADSVKGRFTISRDNAKNTVYLQMNSLKPEDTAVYFCAAEEAPDWAPIDCSGYGCLSLYDYWGQGTQVTVSS V domain 2: EVQLVESGGGVAQAGGSLRLSCAASITSFSLNTMGYYRQLPGKQRELVAVESSSGITNYADSVKGRFTISRDGAKNTVFLQMNSLTPEDTAVYYCGGKLFGRDFWGQGTQVTVSS",0.79,3.4

# The next lines start with the values.
HEK-Blue IL-18: Abs 405 [Abs],HEK-Blue IL-18: Fold over Background [fold],Binder
0.62,2.7,"DGL313 (bispecific antibody, V domains shown) V domain 1: EVQLVESGGGLVQPGGSLRLSCAASGSIFSINAMGWYRQAPGKQREVVATSTGGGMTNYADSVKGRFTISRDNAKNTVYLQMNSLKPEDTAVYYCNADKDPFFPGDYWGQGTQVTVSS V domain 2: QVQLVESGGGLVQAGGSLRLSCAASGMFFSIGEMGWYRQAPGKQREMVARITRDGRINYADSVEGRFTASRNVAKTTLFLQMNSLKPEDTANYQCTVRRWDEEYWGKGTLVTVSD"
0.99,4.3,"DGL317 (bispecific antibody, V domains shown) V domain 1: QVQLQESGGGLVQPGGSLRLSCAASGFIFSNWYMRWVRQAPGEGLEWVSSINSGGDDTDYADSVKGRFTISRDNAKGTLYLQMHSLKPEDTALYYCERGADRVRGQGTQVTVSS V domain 2: QVQLVESGGGLVQAGGSLRLSCAASGMFFSIGEMGWYRQAPGKQREMVARITRDGRINYADSVEGRFTASRNVAKTTLFLQMNSLKPEDTANYQCTVRRWDEEYWGKGTLVTVSD"
0.83,3.6,"DGL314 (bispecific antibody, V domains shown) V domain 1: QVQLQESGGGLVQPGGSLRLSCAASGSIFSTKGLGWYRQAPGEQRELVAGISSAGWIFYTQSVKGRFTMSRDNAKNTVYLQMNSLKPEDTAVYYCNSAQSGVPLRSWGQGTQVTVAS V domain 2: QVQLVESGGGLVQAGGSLRLSCAASGMFFSIGEMGWYRQAPGKQREMVARITRDGRINYADSVEGRFTASRNVAKTTLFLQMNSLKPEDTANYQCTVRRWDEEYWGKGTLVTVSD"
0.63,2.7,"DGL312 (bispecific antibody, V domains shown) V domain 1: QVQLVESGGGLVQAGGSLRLSCAASGRTFSSYDMGWFRQAPGKEREFVAALRWSGGSTSYADSVKGRFTISRDNAKNTVYLHMNSLKPEDTAVYYCAATLETDSGTYWADYWGQGTQVTVSS V domain 2: QVQLVESGGGLVQAGGSLRLSCAASGMFFSIGEMGWYRQAPGKQREMVARITRDGRINYADSVEGRFTASRNVAKTTLFLQMNSLKPEDTANYQCTVRRWDEEYWGKGTLVTVSD"
0.58,2.5,"DGL316 (bispecific antibody, V domains shown) V domain 1: QVQLVESGGGLVQAGGSLRLSCAASGRTFSKHAMGWFRQAPGKEREFVAAIDWSGGSTYYADSVKGRFTISRDNAKNTVYLQMDSLKPEDTAVYYCAADSYTDYAQLWLPELESEYDYWGQGTQVTVSS V domain 2: QVQLVESGGGLVQAGGSLRLSCAASGMFFSIGEMGWYRQAPGKQREMVARITRDGRINYADSVEGRFTASRNVAKTTLFLQMNSLKPEDTANYQCTVRRWDEEYWGKGTLVTVSD"
0.58,2.5,"DGL315 (bispecific antibody, V domains shown) V domain 1: QVQLQESGGGLVQPGGSARLSCVASGIIFNDYHMGWYRQAPGKQRDLVAGITAGGSTTYADSVKGRFTISRDNAKHTVYLQMNNLSPEDTAVYYCNTFYNAILDWGKGTLVTVSS V domain 2: QVQLVESGGGLVQAGGSLRLSCAASGMFFSIGEMGWYRQAPGKQREMVARITRDGRINYADSVEGRFTASRNVAKTTLFLQMNSLKPEDTANYQCTVRRWDEEYWGKGTLVTVSD"
